Measurements published in paper PMC5342555, “ATAD2 is an epigenetic reader of newly synthesized histone marks during DNA replication” (Oncotarget, 2016).
Positions count from the first letter of the chain named. In names and notes the source's numbering stands.

B1: ATAD2^342-1390: recombinant FLAG-tagged ATAD2 residues 342 to 1390, purified from Sf9 cells (protein)
chain: SPYCKRMNRRRHAIHSSDSTSSSSSEDEQHFERRRKRSRNRAINRCLPLNFRKDELKGIYKDRMKIGASLADVDPMQLDSSVRFDSVGGLSNHIAALKEMVVFPLLYPEVFEKFKIQPPRGCLFYGPPGTGKTLVARALANECSQGDKRVAFFMRKGADCLSKWVGESERQLRLLFDQAYQMRPSIIFFDEIDGLAPVRSSRQDQIHSSIVSTLLALMDGLDSRGEIVVIGATNRLDSIDPALRRPGRFDREFLFSLPDKEARKEILKIHTRDWNPKPLDTFLEELAENCVGYCGADIKSICAEAALCALRRRYPQIYTTSEKLQLDLSSINISAKDFEVAMQKMIPASQRAVTSPGQALSTVVKPLLQNTVDKILEALQRVFPHAEFRTNKTLDSDISCPLLESDLAYSDDDVPSVYENGLSQKSSHKAKDNFNFLHLNRNACYQPMSFRPRILIVGEPGFGQGSHLAPAVIHALEKFTVYTLDIPVLFGVSTTSPEETCAQVIREAKRTAPSIVYVPHIHVWWEIVGPTLKATFTTLLQNIPSFAPVLLLATSDKPHSALPEEVQELFIRDYGEIFNVQLPDKEERTKFFEDLILKQAAKPPISKKKAVLQALEVLPVAPPPEPRSLTAEEVKRLEEQEEDTFRELRIFLRNVTHRLAIDKRFRVFTKPVDPDEVPDYVTVIKQPMDLSSVISKIDLHKYLTVKDYLRDIDLICSNALEYNPDRDPGDRLIRHRACALRDTAYAIIKEELDEDFEQLCEEIQESRKKRGCSSSKYAPSYYHVMPKQNSTLVGDKRSDPEQNEKLKTPSTPVACSTPAQLKRKIRKKSNWYLGTIKKRRKISQAKDDSQNAIDHKIESDTEETQDTSVDHNETGNTGESSVEENEKQQNASESKLELRNNSNTCNIENELEDSRKTTACTELRDKIACNGDASSSQIIHISDENEGKEMCVLRMTRARRSQVEQQQLITVEKALAILSQPTPSLVVDHERLKNLLKTVVKKSQNYNIFQLENLYAVISQCIYRHRKDHDKTSLIQKMEQEVENFSCSR
B2: WT ATAD2: recombinant FLAG-tagged full length ATAD2 purified from HEK 293 cells (protein)
chain: MVVLRSSLELHNHSAASATGSLDLSSDFLSLEHIGRRRLRSAGAAQKKPAATTAKAGDGSSVKEVETYHRTRALRSLRKDAQNSSDSSFEKNVEITEQLANGRHFTRQLARQQADKKKEEHREDKVIPVTRSLRARNIVQSTEHLHEDNGDVEVRRSCRIRSRYSGVNQSMLFDKLITNTAEAVLQKMDDMKKMRRQRMRELEDLGVFNETEESNLNMYTRGKQKDIQRTDEETTDNQEGSVESSEEGEDQEHEDDGEDEDDEDDDDDDDDDDDDDDEDDEDEEDGEEENQKRYYLRQRKATVYYQAPLEKPRHQRKPNIFYSGPASPARPRYRLSSAGPRSPYCKRMNRRRHAIHSSDSTSSSSSEDEQHFERRRKRSRNRAINRCLPLNFRKDELKGIYKDRMKIGASLADVDPMQLDSSVRFDSVGGLSNHIAALKEMVVFPLLYPEVFEKFKIQPPRGCLFYGPPGTGKTLVARALANECSQGDKRVAFFMRKGADCLSKWVGESERQLRLLFDQAYQMRPSIIFFDEIDGLAPVRSSRQDQIHSSIVSTLLALMDGLDSRGEIVVIGATNRLDSIDPALRRPGRFDREFLFSLPDKEARKEILKIHTRDWNPKPLDTFLEELAENCVGYCGADIKSICAEAALCALRRRYPQIYTTSEKLQLDLSSINISAKDFEVAMQKMIPASQRAVTSPGQALSTVVKPLLQNTVDKILEALQRVFPHAEFRTNKTLDSDISCPLLESDLAYSDDDVPSVYENGLSQKSSHKAKDNFNFLHLNRNACYQPMSFRPRILIVGEPGFGQGSHLAPAVIHALEKFTVYTLDIPVLFGVSTTSPEETCAQVIREAKRTAPSIVYVPHIHVWWEIVGPTLKATFTTLLQNIPSFAPVLLLATSDKPHSALPEEVQELFIRDYGEIFNVQLPDKEERTKFFEDLILKQAAKPPISKKKAVLQALEVLPVAPPPEPRSLTAEEVKRLEEQEEDTFRELRIFLRNVTHRLAIDKRFRVFTKPVDPDEVPDYVTVIKQPMDLSSVISKIDLHKYLTVKDYLRDIDLICSNALEYNPDRDPGDRLIRHRACALRDTAYAIIKEELDEDFEQLCEEIQESRKKRGCSSSKYAPSYYHVMPKQNSTLVGDKRSDPEQNEKLKTPSTPVACSTPAQLKRKIRKKSNWYLGTIKKRRKISQAKDDSQNAIDHKIESDTEETQDTSVDHNETGNTGESSVEENEKQQNASESKLELRNNSNTCNIENELEDSRKTTACTELRDKIACNGDASSSQIIHISDENEGKEMCVLRMTRARRSQVEQQQLITVEKALAILSQPTPSLVVDHERLKNLLKTVVKKSQNYNIFQLENLYAVISQCIYRHRKDHDKTSLIQKMEQEVENFSCSR
modifications: left off: tagGFP, end not stated, kept
notes: recombinant FLAG-tagged full length ATAD2 purified from HEK 293 cells
B3: ATPase mutant ATAD2: recombinant full length ATPase inactive mutant ATAD2 (K473T and E532Q) (protein)
chain: B2 chain with K473T, E532Q
modifications: left off: tagGFP, end not stated, kept

Test system: HDAC1 binding to H4K5,12diac
Assay: In vitro competition with HDAC1 for immobilized H4K5,12diac peptides (direct binding pull down)
Settings: for competition with HDAC1 for interaction with H4K5,12diac: full length ATAD2 0.22 μM pre-incubated 2 h, then 0.1 μM HDAC1 2 h, 1 μM peptide
Experimental: H4 peptides (1-25) conjugated with Biotin was immobilized on Streptavidin-coupled Dynabeads for 2 hours at 4 °C and incubated with nuclear extract from MCF7 cells. Nuclear extract was prepared by first isolating nucleus in hypotonic buffer (10 mM Tris-HCl pH 8.5, 10 mM NaCl, 0.5 mM TCEP and 0.1 % NP-40) and disrupting nuclear envelop in high salt buffer (20 mM Tris-HCl pH 8.5, 420 mM NaCl, 0.5 mM TCEP, 0.1 % Triton X-100, 25 % Glycerol) for 2 hours at 4 °C. Soluble nuclear extract was harvested by centrifugation at 20000 g for 20 min and diluted to 1:3 in buffer without NaCl in order to achieve physiological salt concentration, 140 mM. The nuclear extract was incubated with the immobilized peptides on the Streptavidin-Dynabeads overnight at 4 °C. Next day, the beads were washed three times with washing buffer (20 mM Tris-HCl pH 8.5, 140 mM NaCl, 0.5 mM TCEP, 0.1 % Triton X-100, 25 % Glycerol) and twice with high salt buffer. Bound proteins were recovered by boiling the beads in 1X sample buffer for 5 min. at 95 °C and analyzed by SDS-PAGE and Western Blotting. For direct binding experiments 1 μM of immobilized histone peptides on Streptavidin-Dynabeads were incubated with indicated amounts of ligands for 2 hours at 4 °C. After stringent washing as described above, bound proteins were analyzed in Western Blotting.

| Molecule | competition with HDAC1 for binding to H4K5,12diac peptides (increasing amount of ATAD2^342-1390 2 h, then 0.1 μM recombinant HDAC1 2 h, 1 μM immobilized peptide) | competition with HDAC1 for interaction with H4K5,12diac |
| --- | --- | --- |
| B1 | outcompeted | – |
| B2 | – | competes |
| B3 | – | not |
